# B1: primary (capture) aptamer (ssDNA)
# DNA: CGTGCAGTACGCCAACCTTTCTCATGCGCTGCCCCTCTTA
# modifications: 5'-amine-spacer 18-spacer 18
# Target: cardiac troponin I (cTnI) (UniProt P19429 2-210)
# Experiment: SERS aptamer sandwich assay on waveguide; 1 ng/mL cTnI stock (25 uL mixed with 50 uL reporter NPs); sandwich with N2-AuNP; no cTnI-free control described; aptamer-AuNPs resuspended in PBS; cTnI incubated 30 min with reporter NPs, then 1 h on waveguide, rinsed with buffer; pH and temperature not stated
# Details: protein: commercial
# Sequence of cardiac troponin I (cTnI) (P19429 2-210): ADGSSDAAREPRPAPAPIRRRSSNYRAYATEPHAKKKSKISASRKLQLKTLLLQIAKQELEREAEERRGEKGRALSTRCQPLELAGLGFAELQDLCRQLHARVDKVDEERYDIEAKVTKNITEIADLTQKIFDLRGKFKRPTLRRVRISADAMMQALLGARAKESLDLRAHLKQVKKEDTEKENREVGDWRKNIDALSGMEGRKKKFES
binder,measurement,value
B1,binding result,binds
